Experimental findings from article PMC4167697 are described below.

“And” between values parts separate entries of the source, which are not always exact repeats. Equal values may be shown once.

In assay [1] the target is protein G B1. The assay can be described thus: BLI; kinetic titration series; GB1 amine-coupled on AR2G sensors, IgG as analyte at 0.03125-0.5 µM in turn on one sensor; PBS with 0.05% Polysorbat 20, 25°C, 1000 rpm; each sensor pair fitted separately, 1:1 kinetic titration series model with RI-term.
For assay [2], the target named is protein G B1. Described as above. This is another data set of the same source.
For assay [3], the target named is protein G B1. Description: BLI; parallel sensor kinetics; GB1 amine-coupled on AR2G sensors, IgG as analyte at 0.03125-0.5 µM on five sensors in parallel; PBS with 0.05% Polysorbat 20, 25°C, 1000 rpm; global 1:1 fit with RI-term. (In general: BLI is a label-free optical method that tracks binding on a fibre tip over time.)
Assay [4] has as its target protein G B1. The assay can be described thus: BLI; kinetic titration series, fitted without RI term (Figure S3B); GB1 on AR2G sensors, IgG as analyte.
The target of assay [5] is protein G B1. The assay can be described thus: BLI; kinetic titration series; GB1 amine-coupled on AR2G sensors, IgG as analyte at 0.03125-0.5 µM in turn on one sensor; PBS with 0.05% Polysorbat 20, 25°C, 1000 rpm; each sensor pair fitted separately, 1:1 kinetic titration series model with RI-term. The source holds these as a separate data set.
Assay [6] has as its target protein G B1. The description is as above. This is another data set of the same source.
Assay [7] concerns the target protein G B1. The assay can be described thus: BLI; parallel sensor kinetics, fitted without RI term (Figure S3A); GB1 on AR2G sensors, IgG as analyte.
In assay [8] the target is protein G B1. Description: BLI; kinetic titration series; GB1 amine-coupled on AR2G sensors, IgG as analyte at 0.03125-0.5 µM in turn on one sensor; PBS with 0.05% Polysorbat 20, 25°C, 1000 rpm; each sensor pair fitted separately, 1:1 kinetic titration series model with RI-term. The source holds these as a separate data set.
The target in assay [9] is protein G B1. The description is as above. This is another data set of the same source.
Assay [10] concerns the target protein G B1. Described as above. The source holds these as a separate data set.
Assay [11] has as its target protein G B1. Description: BLI; kinetic titration series; GB1 amine-coupled on AR2G sensors, IgG as analyte at 0.03125-0.5 µM in sequence on one sensor; PBS with 0.05% Polysorbat 20, 25°C, 1000 rpm; 1:1 kinetic titration series model with RI-term; mean of 7 replicates.
Assay [12] concerns the target protein G B1. Description: BLI; parallel sensor kinetics; GB1 amine-coupled on AR2G sensors, IgG as analyte at 0.03125-0.5 µM, one sensor for each concentration; PBS with 0.05% Polysorbat 20, 25°C, 1000 rpm; global 1:1 binding model with RI-term; two measurements (#1, #2).

A word on the Kd: it is the equilibrium constant for the complex coming apart. The koff is a measure of how fast the partners let go of each other. For orientation: kon means the second-order rate constant of association. On to “rabbit IgG (ID: ABIN376828; Antibodies-Online) (antibody)”, for which the Kd with protein G B1 [1] turned out to be 50.4 nM; in the assay with protein G B1 [2] it was 164 nM; in the assay with protein G B1 [4] it was 107 nM; in the assay with protein G B1 [5], 254 nM; in the assay with protein G B1 [6], 266 nM; in the assay with protein G B1 [7], 186 nM. In addition, the Kd came out at 166 nM with protein G B1 [8], 87.7 nM with protein G B1 [9] and 124 nM with protein G B1 [10]. Besides, the koff stood at 0.0016 s⁻¹ in the assay with protein G B1 [1]; 0.00485 s⁻¹ with protein G B1 [2]; 0.00702 s⁻¹ with protein G B1 [3]; 0.00185 s⁻¹ with protein G B1 [4]; 0.00467 s⁻¹ with protein G B1 [5]; 0.00606 s⁻¹ in the assay with protein G B1 [6]. Further, the koff in the assay with protein G B1 [7] came out at 0.00317 s⁻¹; with protein G B1 [8], 0.00476 s⁻¹; in the assay with protein G B1 [9], 0.00601 s⁻¹; with protein G B1 [10] it was 0.00551 s⁻¹. The kon is 31800 M⁻¹ s⁻¹ in the assay with protein G B1 [1]; 29700 M⁻¹ s⁻¹ in the assay with protein G B1 [2]; 45100 M⁻¹ s⁻¹ in the assay with protein G B1 [3]; 17300 M⁻¹ s⁻¹ with protein G B1 [4]; 18400 M⁻¹ s⁻¹ in the assay with protein G B1 [5]; 22800 M⁻¹ s⁻¹ with protein G B1 [6]. Moreover, the kon with protein G B1 [7] came out at 17000 M⁻¹ s⁻¹; with protein G B1 [8], 28700 M⁻¹ s⁻¹; with protein G B1 [9], 68500 M⁻¹ s⁻¹; in the assay with protein G B1 [10], 44300 M⁻¹ s⁻¹.

For rabbit immunoglobulin G (antibody), the Kd with protein G B1 [11] is 159 nM; in the assay with protein G B1 [12], 156 nM and 253 nM.
